Assay results from patent publication US20230159643A1 (H LUNDBECK A S, published 2023).

T1: Sortilin SORTECDBAP_hB06-10 (human/tetraodon chimera)
T1 construct: Shuffle construct
T1 chain: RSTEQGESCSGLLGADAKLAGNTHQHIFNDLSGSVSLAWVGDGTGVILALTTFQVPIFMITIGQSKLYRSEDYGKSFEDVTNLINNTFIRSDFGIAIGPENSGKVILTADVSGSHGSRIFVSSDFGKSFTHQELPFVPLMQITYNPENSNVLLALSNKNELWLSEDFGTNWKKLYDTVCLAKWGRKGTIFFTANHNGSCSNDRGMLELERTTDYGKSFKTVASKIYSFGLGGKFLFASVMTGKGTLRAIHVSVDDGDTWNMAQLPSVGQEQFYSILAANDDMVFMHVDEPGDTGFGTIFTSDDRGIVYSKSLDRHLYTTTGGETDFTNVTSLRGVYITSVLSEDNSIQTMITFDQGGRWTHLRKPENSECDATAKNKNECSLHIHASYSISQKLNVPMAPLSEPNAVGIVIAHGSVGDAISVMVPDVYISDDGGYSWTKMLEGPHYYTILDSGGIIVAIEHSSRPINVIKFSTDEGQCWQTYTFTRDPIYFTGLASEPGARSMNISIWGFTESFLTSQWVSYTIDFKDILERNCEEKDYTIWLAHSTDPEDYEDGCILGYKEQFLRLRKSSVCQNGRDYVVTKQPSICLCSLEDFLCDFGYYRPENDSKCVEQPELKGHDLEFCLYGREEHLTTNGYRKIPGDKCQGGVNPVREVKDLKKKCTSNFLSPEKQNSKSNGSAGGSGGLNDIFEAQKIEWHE

T2: Sortilin hSORTECDBAP (human, UniProt Q99523 78-755, biotinylated on the BAP tag by co-expression of biotin ligase)
T2 construct: Soluble extracellular region (ECD, aa 1-755) with BAP tag
T2 sequence: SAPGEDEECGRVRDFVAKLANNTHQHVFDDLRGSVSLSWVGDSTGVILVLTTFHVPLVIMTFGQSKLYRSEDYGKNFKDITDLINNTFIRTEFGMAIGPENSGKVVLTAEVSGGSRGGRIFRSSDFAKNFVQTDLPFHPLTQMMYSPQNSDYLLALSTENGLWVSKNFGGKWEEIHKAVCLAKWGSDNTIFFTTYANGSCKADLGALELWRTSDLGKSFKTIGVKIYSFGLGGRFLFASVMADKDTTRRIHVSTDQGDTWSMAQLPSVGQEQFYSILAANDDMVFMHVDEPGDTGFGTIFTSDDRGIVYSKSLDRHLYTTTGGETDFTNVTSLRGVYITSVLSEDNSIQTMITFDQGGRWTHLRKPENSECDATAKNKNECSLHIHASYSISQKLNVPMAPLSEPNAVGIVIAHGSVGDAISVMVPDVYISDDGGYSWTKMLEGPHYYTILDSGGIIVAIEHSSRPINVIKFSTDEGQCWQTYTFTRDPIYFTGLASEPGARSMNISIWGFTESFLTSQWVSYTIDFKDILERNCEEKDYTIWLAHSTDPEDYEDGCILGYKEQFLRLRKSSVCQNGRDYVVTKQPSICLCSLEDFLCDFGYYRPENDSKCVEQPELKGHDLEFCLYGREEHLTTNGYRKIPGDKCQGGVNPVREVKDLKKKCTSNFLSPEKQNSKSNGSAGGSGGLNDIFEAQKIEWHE

T3: Sortilin SORTECDBAP_hB45678 (human/tetraodon chimera)
T3 construct: Shuffle construct
T3 chain: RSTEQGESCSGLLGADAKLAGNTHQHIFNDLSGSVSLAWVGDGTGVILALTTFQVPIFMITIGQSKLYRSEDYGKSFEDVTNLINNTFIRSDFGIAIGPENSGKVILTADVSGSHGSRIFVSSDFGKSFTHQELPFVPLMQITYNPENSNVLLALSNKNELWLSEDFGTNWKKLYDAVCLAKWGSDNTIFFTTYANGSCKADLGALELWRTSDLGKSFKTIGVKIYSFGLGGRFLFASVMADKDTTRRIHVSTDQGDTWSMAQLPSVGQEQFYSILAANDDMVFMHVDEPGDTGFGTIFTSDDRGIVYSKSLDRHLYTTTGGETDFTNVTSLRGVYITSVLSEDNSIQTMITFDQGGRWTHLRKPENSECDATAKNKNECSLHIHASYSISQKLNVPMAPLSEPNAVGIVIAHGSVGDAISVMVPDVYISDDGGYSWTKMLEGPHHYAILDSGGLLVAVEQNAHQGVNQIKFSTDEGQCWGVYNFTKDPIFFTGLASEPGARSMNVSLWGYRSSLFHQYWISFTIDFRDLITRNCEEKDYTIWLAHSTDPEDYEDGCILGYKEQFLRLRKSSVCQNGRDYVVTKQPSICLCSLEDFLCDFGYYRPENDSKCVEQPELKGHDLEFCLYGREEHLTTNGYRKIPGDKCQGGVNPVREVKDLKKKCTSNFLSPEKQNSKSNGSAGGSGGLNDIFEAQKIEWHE

B1: Antibody 5E1 (antibody, V domains shown)
VH: EVHLVESGGDLVNPGGSLKLSCEASGFIFSIYGMSWVRQTPDKRLEWVAMISSGGIYTQYPDSVKGRFTISRDNAKNTLYLQMSGLKSEDTGTYHCTRHDDSWFAYWGQGTLVTVSA
VL: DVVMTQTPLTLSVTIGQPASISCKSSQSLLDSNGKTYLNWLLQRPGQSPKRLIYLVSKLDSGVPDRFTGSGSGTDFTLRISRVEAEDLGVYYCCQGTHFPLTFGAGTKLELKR
notes: Mouse anti-human Sortilin monoclonal antibody from hybridoma (BALB/c), purified on protein G; Assigned to the D Region; also called 5E1F6; Ab 5E1
B2: Antibody 1F2 (antibody, V domains shown)
VH: EVQLVESGGDLVKPGGSLKLSCAASGFTFSSYGMSWVRQTPDKRLEWVAIISSGGSYTHYPDSVKGRFTISRDNAKNTLYLQMSSLKSEDTAMYYCARLCGPLCSGYWGQGTSVTVSS
VL: QAVVTQESALTTSPGETVTLTCRSSTGAVTTSNYANWVQEKPDHLFTGLIGGTNNRAPGVPARFSGSLIGDKAALTITGAQTEDEAIYFCALWYSNHFWVFGGGTKLTVLG
notes: Mouse anti-human Sortilin monoclonal antibody from hybridoma (BALB/c), purified on protein G; Assigned to the D Region; also called 1F2F4; Ab 1F2

How the values were obtained:
Assay in all cases: BLI Octet 384RED (Example 8), Sortilin construct in solution
[1] = biological target: T1, Sortilin SORTECDBAP_hB06-10
Experimental: (§1) Binding kinetics of anti-Sortilin HuMab antibodies to Sortilin were determined using Octet 384RED (Fortebio, Menlo Park, USA). HuMab solutions of 2 μg/ml were made by dilution in sample diluent (ForteBio, art. No. 18-5028). Prot A sensors (ForteBio, art. no. 18-0004) were prewetted with kinetics buffer (1:10 sample diluent in PBS) for at least 600 seconds. Subsequently sensors were immobilized with HuMab solution for 600 seconds. A baseline response was obtained by dipping in kinetics buffer for 120 seconds. Association of SORTECD constructs was performed during a 1000 seconds incubation. This was followed by dissociation in kinetics buffer for 100 seconds. After dissociation, sensors were regenerated (10 mM Glycine pH 1.0) and neutralized (kinetics buffer) 3 times for 5 seconds. […] A molecular weight of 76.8 kDA was used for SORTECDHis. Data was fitted with ForteBio Analysis 6.4 software, using a global full fit.

Sortilin hSORTECDBAP = biological target: T2, Sortilin hSORTECDBAP
Experimental: as §1

[2] = biological target: T3, Sortilin SORTECDBAP_hB45678
Experimental: as §1

Binder | EC50 [1] [ng/mL] | EC50 (Sortilin hSORTECDBAP) [ng/mL] | binding result [2]
B1 | 0.72 | 1.14 | no binding (tested: 10 µg/ml construct)
B2 | 9.6 | 1.56 | no binding (tested: 10 µg/ml construct)
